Test results taken from patent US12448434B2, “Antibodies specifically recognizing Pseudomonas PcrV and uses thereof” (priority 2019, dated 2025).
Positions count from the first letter of the chain named.

Legend:
[1] = test system: PcrV mutants (with mutations at position 225); assay: Binding to PcrV mutants with mutations at position 225; design: species or system Pseudomonas aeruginosa; settings: data not shown
Description: To further illustrate the optimized antibodies could broadly neutralize P. aeruginosa strains, the abilities of these antibodies to bind various forms of PcrV mutants were tested. Briefly, 100 PcrV sequences were randomly selected from Genebank database. In contrast to the wild type sequence as shown in SEQ ID No: 71, 13% of the selected sequences contained R, G, or K at position 225 (as compared of S in the wild type sequence SEQ No: 71), which was the main mutation around the epitope of 7B1.
These findings further illustrate that the optimized anti-PcrV antibodies could neutralize a broad spectrum of P. aeruginosa strains, which might express various forms of PcrV mutants.

PcrV = assay: BIACORE binding to PcrV; design: species or system Pseudomonas aeruginosa; settings: data not shown
Description: The association constant (ka), dissociation constant (kd) and the equilibrium dissociation constant (kD) for binding of optimized anti-PcrV mAb clones 7B1, 7C1, 8C1, 6D10 and reference antibody V2L2-MD to PcrV were tested by BIACORE (GE company).

[2] = test system: P. aeruginosa (PA103 strain); assay: Therapeutic mouse acute pneumonia model, survival; type: in vivo, BALB/c mice; settings: i.v. 1 h post-infection, 1 mg/kg or 10 mg/kg; 1*LD90; 6 days
Description: In a therapeutic model, to induce acute pneumonia, 7-8 week old BALB/c mice (Vital River Laboratory) were intranasally inoculated with P. aeruginosa (PA103 strain) suspended in a 40 μl inoculum at a lethal dose (1*LD90=8×10^5 CFU). Antibodies or PBS were administered intravenously (i.v.) at 1 h post-infection, at a dose of 1 mg/kg or 10 mg/kg mouse weight. Mouse survival was recorded for up to 6 days post-infection.

[3] = test system: P. aeruginosa (PA103 strain); assay: Prophylactic mouse acute pneumonia model, organ burden; type: in vivo, BALB/c mice; settings: 10 mg/kg i.p. 24 hr before infection, 0.5*LD90
Description: In a prophylactic model, 7-8 week old BALB/c mice (Vital River Laboratory) were administered with antibodies or PBS intraperitoneally (i.p.) 24 hr before infection, at 10 mg/kg mouse weight. To induce acute pneumonia, the BALB/c mice were intranasally inoculated with P. aeruginosa (PA103 strain) suspended in a 40 μl inoculum at half the lethal dose (0.5*LD90; 3×10^5 CFU). 24 hours post-infection, mice were euthanized, where the lungs, spleens and kidneys were extracted, homogenized and diluted before plating on agar to measure the viable bacteria units (in CFU), which represented the P. aeruginosa burden in the respective organ sample.

PcrV-negative A549 cells = assay: Cross-reactivity to PcrV-negative A549 cells by FACS; type: cell-based, human; settings: FIGS. 4A-4E, compared with no antibody and V2L2-MD
Description: Cross-reactivity to A549 cells: Using FACS, parental antibody 13-42, optimized antibodies 7C1, 7B1, 8C1, 6D10 as well as V2L2-MD were tested for cross-reactivity to PcrV-negative A549 cells.

[4] = rat, in vivo, iv
Description: Pharmacokinetic profile in rat: 40 healthy adult rats (about 0.2 kg by weight) were equally into two groups, where each group registered similar average weight. One group was injected intravenously with 30 mg/kg of V2L2-MD, 7C1, 7B1, 8C1 or 6D10 and the other group was injected intravenously with 3 mg/kg of V2L2-MD, 7C1, 7B1, 8C1 or 6D10. Blood was collected at […], and subsequently at 0 hour, 0.5 hour, 2 hour, 8 hour, 1 day, 3 days, 7 days, 11 days, 17 days, 23 days, 31 days, 41 days and 52 days after injection. After centrifugation, the plasma was used for analyzing antibody concentration using ELISA. For the ELISA experiment, synthetic PcrV was used to coat the wells of a 96-well plate. On the following day, after washing with PBST, blocking with 200 μL PBS-milk for an hour, and another wash with PBST, the plasma was added and incubated for an hour at 37° C. The plate was washed with 0.1% TBST for 6 times before 100 μL of Goat-anti-human Fc antibody-AP (1:3000 in PBS) was added to each well and incubated for an hour. After washing with 0.1% TBST for 6 times, 50 μL of pNPP was added to each well and color was developed for 10-20 minutes at 37° C. The signals were read by a microplate reader at 410 nm.

BV particles = assay: Cross-reactivity to BV particles by ELISA; type: binding; settings: FIG. 3
Description: Cross-reactivity to BV particles: Using ELISA, optimized antibodies 7C1, 7B1, 8C1, 6D10, and reference antibodies V2L2-MD and Mab166 were tested for cross-reactivity to BV particles according to the method described previously (See Hötzel I, et al, 2012, mAbs 4:6, 753-760).

[5] = test system: Strain 57/66(O6) P. aeruginosa; assay: RBC lysis inhibition assay, strain 57/66(O6); type: cell-based, Pseudomonas aeruginosa; settings: Table 7
Description: Monoclonal scFv antibodies were selected and assessed for biological activity by RBC lysis assay. Briefly, red blood cells (RBCs) were prepared from fresh whole human or rabbit blood by centrifugation, supplemented with EDTA and rinsed with multiple phosphate-buffered saline (PBS) washes. Washed RBCs (2.5% [vol/vol] final) in Dulbecco's modified Eagle's medium (DMEM) plus 10% fetal bovine serum (FBS) (Gibco) and purified anti-PcrV antibodies diluted in PBS were combined into wells of a round-bottom 96-well plate. Strain 57/66(O6) P. aeruginosa was grown to mid-log phase in 2× YT medium (Oxford), harvested by centrifugation, and resuspended in DMEM-fetal bovine serum (FBS) at an optical density at 600 nm (OD600) of 0.15. Ten microliters of bacterial suspension was added to the RBC-antibody mixture, mixed by agitation, and incubated for 3 hours at 37° C. and 5% CO2. The plates were briefly centrifuged (1000 rpm, 1 min) to pellet the intact RBCs, the supernatants transferred to a flat-bottom 96-well plate, and the OD405 was measured to detect any lysis, from which the relative amount of lysis inhibition was calculated and plotted. IC50 values for the antibodies were also determined.
The ability of optimized anti-PcrV mAb clones 7B1, 7C1, 8C1, 6D10, 6A10, 5B3, 3B12, 4A10, 2B1, 7B2, 3H10, 3G3, 9B12, 3A9, 2D3, 7B1-1F5, to inhibit red blood cell lysis was compared to the parental 13-42 mAb and the reference antibody V2L2-MD. RBC lysis inhibition assay was performed as described in Example 1.
The optimized anti-PcrV mAb clones 7C1, 8C1, and 7B1 were further analyzed for their abilities to inhibit red blood cell lysis by various strains of P. aeruginosa, namely strains O1-52/66, O16-177/81, and O6-57/66, as compared to the parental 13-42 mAb and the reference antibody V2L2-MD. RBC lysis inhibition assay was performed as described in Example 1.

B1: 6D10: optimized anti-PcrV mAb clone; VH SEQ ID NO: 61, VL SEQ ID NO: 65 (antibody, V domains shown)
VH: EVQLLESGGGLVQPGGSLRLSCTASGFTFSDYPMSWVRQAPGKGLDWVSGISESGGSTNYADSVKGRFSTSRDNSKSTLYLDMNSLRAEDTAIYYCAKGRFSTDSSHFYRAVYGMDVWGQGTAVTVSS
VL: DIQLTQSPSSLSASVGDRVTITCRASQGISSYLAWYQQKPGKAPKLLIYAASTLQSGVPSRFSGSGSGTDFTLTISSLQPEDFATYYCQQLSSYPLSFGGGTKVEIK
For B1, the “binding to PcrV mutants with R, G or K at position 225” value [1] was “strongly bind these mutants”, the “association and dissociation kinetics in PcrV binding (ka and kd values)” value (PcrV) was “comparable association and dissociation kinetics” and the “survival improvement relative to V2L2-MD” value [2] was “survival improvement comparable to that of V2L2-MD”. For the same molecule, the “reduction of organ burden in the lung, spleen and kidney relative to HIV-10E8” value ([3]; FIG. 8B) was “higher efficacy in reducing organ burden”, the “reduction of organ burden in the lung, spleen and kidney relative to V2L2-MD” value ([3]; FIG. 8B) was “comparable efficacy in reducing organ burden” and the “binding to PcrV-negative A549 cells” value (PcrV-negative A549 cells) was “similarly low levels of A549 binding”. For the same molecule, the “half-lives relative to reference antibody V2L2-MD” value [4] was “comparable to or longer than that of reference antibody V2L2-MD” and the “non-specific binding to BV particles” value (BV particles) was “low levels of non-specific binding”.

B2: 9B12: optimized anti-PcrV mAb clone; VH SEQ ID NO: 64, VL SEQ ID NO: 67 (antibody, V domains shown)
VH: B1 VH with Y32N, G50V, Y60D, D104N, S106D
VL: B1 VL with S97T
For B2, the “RBC lysis assay IC50” value [5] was 0.07 µg/mL.

B3: 2D3: optimized anti-PcrV mAb clone; VH SEQ ID NO: 53, VL SEQ ID NO: 65 (antibody, V domains shown)
VH: B1 VH with Y32N, P33H, N59Y, T103Y, S105T, S106R, Y109F
VL: B1 VL
For B3, the “RBC lysis assay IC50” value [5] was 0.05 µg/mL.

B4: 7B1-1F5: optimized anti-PcrV mAb clone; VH SEQ ID NO: 62, VL SEQ ID NO: 70 (antibody, V domains shown)
VH: B1 VH with Y32N, P33Y, G50V, D104L, Y109F
VL: B1 VL with L11F, V15T, L46V, D70E, S92K, S97T, V104L
With B4 the “RBC lysis assay IC50” value [5] was 0.19 µg/mL.

B5: 13-42: lead parental full-length human IgG1 anti-PcrV antibody; VH SEQ ID NO: 48, VL SEQ ID NO: 65 (antibody, V domains shown)
VH: B1 VH with Y60D, S102C, D104N, H107C, Y109F
VL: B1 VL
With B5 the “reduction of organ burden in the lung relative to V2L2-MD” value ([3]; 24 hours post-infection, FIG. 8A) was “better efficacy in reducing organ burden in the lung” and the “binding to PcrV-negative A549 cells” value (PcrV-negative A549 cells) was “similarly low levels of A549 binding”.
